The data set in a line: yeast display, Sf9 membrane polyspecificity reagent, FACS + sequencing; frameworks hold sequencing errors. In short, it runs like this: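 A synthetic nanobody library was expressed on Saccharomyces cerevisiae BJ5465 by galactose induction for 36–48 hours. The library was stained for 1 hour at 4 °C with 10% biotinylated, detergent-solubilized Sf9 membrane reagent and enriched with streptavidin microbeads before FACS. Low and high (top ~1%) gates were set on anti-HA fluorescence for expression and streptavidin fluorescence for reagent binding, and each polyreactivity label reflects the gate of origin.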
Take “QVQLVESGGGLVQAGGSLRLSCAASGRTFKGYAMGWYRQAPGKERELVAAISYRGGSTYYADSVKGRFTISRDNAKNTVYLQMNSLKPEDTAVYYCAARWNRGRYDYWGQGTQVTVSS”: the “polyreactivity (PSR sort gate)” value is listed as “high polyreactivity”. To “QVQLVESGGGLVQAGGSLRLSCAASGRTFKGYAMGWYRQAPGKERELVAGISTGGNTNYADSVMGRFTISRDNAKNTVYLQMNSLKPEDTAVYYCNAVYRGFTHYTGYEYWGQGTQVTVSS” belongs “high polyreactivity”; to “QVQLVESGGGLVQAGGSLRLSCAASGRTFKGYAMGWYSQAPGKDRELVAAISYRGGSTYYADSVKGRFTISRDNAKNTGYLQMNILKPEDTAFYYCAARWNRGRYDYWGQGTQVTVSS”, “high polyreactivity”. Consider “QVQLVESGGGLVQAGGSLRLSCAASGRTFKHYAMGGYRQAPGKERELVAAITSGGSTYYADSVKGRFTISRDNAKNTVYLQMNSLKPEDTAVYYCNKESYFDTYRRYDSWGQGTQVTVSS”, for which the “polyreactivity (PSR sort gate)” value was “low polyreactivity”. With “QVQLVESGGGLVQAGGSLRLSCAASGRTFKIYAMGWYRQAPGKEREFVASINWSGGITYYADSVKGRFTISRDNAKNTVYLQMNSLKPEDTAVYYCAARIDSSRIGKRFYYWGQGTQVTVSS”, the “polyreactivity (PSR sort gate)” value is “high polyreactivity”. In the case of “QVQLVESGGGLVQAGGSLRLSCAASGRTFKKYALGWYRQAPGKEREVVAAITSRVRSTSYADSVKGRFTISRDNAKNTVYLQMNSLIPEDTAVYYCAARYSVGNGYGYWGQVTQVTVSS”, the “polyreactivity (PSR sort gate)” value is “high polyreactivity”. As to “QVQLVESGGGLVQAGGSLRLSCAASGRTFKKYAMGWYRQAPGKERELVAAIRRSGGSTYYADSVKGRFTISRDNAKNTVYLQMNSLKPEDTAVYYCAADFRVGRYDYWGQGTQVTVSS”, the “polyreactivity (PSR sort gate)” value was “high polyreactivity”. As for “QVQLVESGGGLVQAGGSLRLSCAASGRTFKKYAMGWYRQAPGKERELVAAITSRVGSTSYADSVKGRFTISRDNAKNTVYLQMNSLKPEDTAVYYCAARYSVGTGYGYWGQGTQVTVSS”, the “polyreactivity (PSR sort gate)” value is listed as “high polyreactivity”.

Regarding “QVQLVESGGGLVQAGGSLRLSCAASGRTFKKYAMGWYRQAPGTERELVAAFTGSGGSTYYADSVKGRFTISRDNAKNTVYLKMNSLKPEDTAVYYCAAYAYGVWHSQDGGNYWGQGTQVTVSS”, the “polyreactivity (PSR sort gate)” value is on record as “low polyreactivity”. Take “QVQLVESGGGLVQAGGSLRLSCAASGRTFKKYTMGWYRQAPGKERELVAVITSGGSTYYADSVKGRFTISRDNAKNTVYLQMNSLKPEDTAVYYCATKASYKGDYWGQGTQVTVSS”: the “polyreactivity (PSR sort gate)” value was “high polyreactivity”. In the case of “QVQLVESGGGLVQAGGSLRLSCAASGRTFKLYAMGWYRQAPGKESELVAAISRSGGSTYYADSVKGRFTISRDNAKNTVYLQMKSLKPEDTAVYYCNRRQGYHGDYDYWGQGTQVTVSS”, the “polyreactivity (PSR sort gate)” value is “high polyreactivity”. To “QVQLVESGGGLVQAGGSLRLSCAASGRTFKPNAMGWYRQAPGKERELVASINDVGSTNYADSVKGRFTISRDNAKNTVYLQMNSLKPEDTAVYYCAADPYWYPYYGYYILYDYWGQGTHVTVSS” belongs “low polyreactivity”; to “QVQLVESGGGLVQAGGSLRLSCAASGRTFKRNAMGWYRQAPGKERELVAGISTGGSTNYADSVKGRFTISRDNAKNTVYLQMNSLKPEDTAVYYCAARYRTDWTPGYHVGYYYWGQGTQVTVSS”, “high polyreactivity”; to “QVQLVESGGGLVQAGGSLRLSCAASGRTFKRNAMGWYRQAPGKERELVASISWRGGSTYYADSVKGRFTISRDNAKNTVFLQMKSLKPEDTAVYYCAAQYPVWRRLYRTWLVAEVDYWGQGTQVTVSS”, “low polyreactivity”. “QVQLVESGGGLVQAGGSLRLSCAASGRTFKRYAMGWYRQAPGKERELVAAITFSGGSTYYADSVKGRFTISRDNAKNTVYLQMNSLKPADTAVYYCAAVGEHYPWDYYWGQGTQVTVSS”: the “polyreactivity (PSR sort gate)” value was “high polyreactivity”. To “QVQLVESGGGLVQAGGSLRLSCAASGRTFKRYAMGWYRQAPGKERELVARITYSGARTYYADSVKGRFTISRDNAKNTVYLQMNSLKPEDTAVYYCAAQQYWTSQYFRSATFDYWGQGTQVTVSS” belongs “high polyreactivity”.

Values taken from the nanobody polyreactivity screen of Harvey et al. (2022).
